Measurements reported in patent publication US7122382.

Key:
streptoavidin beads = streptoavidin beads (UniProt P22629); assay: five 35S-labelled proteins alone on streptavidin beads, no biotinylated protein
Jun = Jun (UniProt P05627); assay: biotinylated row protein on streptavidin beads, 35S column protein counted
Fos = Fos (UniProt P01101); assay: as above
SV40 large T (SV40) = SV40 large T (SV40) (UniProt P03070); assay: as above
p53 = p53 (UniProt P02340); assay: as above
[1] = biological target: luciferase [luciferase: P08659]; assay: as above
Sequence of luciferase [luciferase: P08659] (P08659 whole entry): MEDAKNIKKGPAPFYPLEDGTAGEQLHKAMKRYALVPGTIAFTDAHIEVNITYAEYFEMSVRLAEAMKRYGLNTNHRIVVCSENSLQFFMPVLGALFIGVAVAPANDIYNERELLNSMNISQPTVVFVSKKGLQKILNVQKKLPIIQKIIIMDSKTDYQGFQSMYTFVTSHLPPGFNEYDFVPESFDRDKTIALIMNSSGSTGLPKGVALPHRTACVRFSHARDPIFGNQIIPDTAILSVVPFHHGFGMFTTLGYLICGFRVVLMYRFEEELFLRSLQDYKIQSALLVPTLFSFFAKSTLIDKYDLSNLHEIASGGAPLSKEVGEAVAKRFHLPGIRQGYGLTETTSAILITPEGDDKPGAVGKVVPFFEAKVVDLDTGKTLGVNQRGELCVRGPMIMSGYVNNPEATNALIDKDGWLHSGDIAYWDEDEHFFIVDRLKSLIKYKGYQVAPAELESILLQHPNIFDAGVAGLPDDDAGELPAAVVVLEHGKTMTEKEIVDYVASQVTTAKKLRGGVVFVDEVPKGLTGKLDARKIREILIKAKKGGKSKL

Sequence of streptoavidin beads (P22629 37-163): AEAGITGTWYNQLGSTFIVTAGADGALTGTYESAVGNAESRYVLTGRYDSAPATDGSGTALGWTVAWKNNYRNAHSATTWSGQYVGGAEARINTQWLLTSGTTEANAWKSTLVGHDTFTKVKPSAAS
Sequence of p53 (P02340 whole entry): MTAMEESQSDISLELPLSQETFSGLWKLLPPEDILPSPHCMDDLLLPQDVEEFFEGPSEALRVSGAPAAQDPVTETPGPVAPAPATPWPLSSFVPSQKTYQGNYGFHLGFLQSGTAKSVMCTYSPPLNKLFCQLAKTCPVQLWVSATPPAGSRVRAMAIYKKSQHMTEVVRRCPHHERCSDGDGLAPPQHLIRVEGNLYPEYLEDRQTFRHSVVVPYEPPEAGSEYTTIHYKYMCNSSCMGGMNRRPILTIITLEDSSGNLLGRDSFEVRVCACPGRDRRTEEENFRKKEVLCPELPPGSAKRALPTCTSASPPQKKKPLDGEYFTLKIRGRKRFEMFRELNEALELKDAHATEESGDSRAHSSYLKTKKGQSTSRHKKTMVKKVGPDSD
Sequence of Jun (P05627 whole entry): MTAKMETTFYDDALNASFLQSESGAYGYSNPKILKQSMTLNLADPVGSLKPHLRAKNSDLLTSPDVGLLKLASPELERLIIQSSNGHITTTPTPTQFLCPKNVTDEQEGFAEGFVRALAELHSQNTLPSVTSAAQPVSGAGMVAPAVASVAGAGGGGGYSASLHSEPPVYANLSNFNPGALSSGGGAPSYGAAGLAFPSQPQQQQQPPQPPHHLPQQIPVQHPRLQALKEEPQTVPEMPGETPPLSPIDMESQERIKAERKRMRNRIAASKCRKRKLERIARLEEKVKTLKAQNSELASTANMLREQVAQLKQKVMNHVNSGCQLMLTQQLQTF
Sequence of Fos (P01101 whole entry): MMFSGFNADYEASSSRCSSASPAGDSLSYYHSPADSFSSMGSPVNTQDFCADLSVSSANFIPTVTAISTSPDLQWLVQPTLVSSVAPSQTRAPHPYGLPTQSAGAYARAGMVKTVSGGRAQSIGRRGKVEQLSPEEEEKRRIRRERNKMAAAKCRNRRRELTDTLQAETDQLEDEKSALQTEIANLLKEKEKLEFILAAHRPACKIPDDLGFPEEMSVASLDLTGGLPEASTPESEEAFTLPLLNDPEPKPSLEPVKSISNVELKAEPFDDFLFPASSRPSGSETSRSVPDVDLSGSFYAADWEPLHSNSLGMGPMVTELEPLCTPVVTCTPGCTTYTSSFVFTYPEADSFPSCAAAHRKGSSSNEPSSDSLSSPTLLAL

How did the RI (cpm), background without biotinylated proteins (streptoavidin beads) turn out when “mixture of the five proteins of Reference Examples 1 and 2 (Fos, Jun, luciferase, SV40 large T, p53)” was run?
Its RI (cpm), background without biotinylated proteins is 447 cpm.

“SV40 large T (from UniProt P03070 1-708)” was tested. Which RI (c.p.m.) (Jun) did it give?
The RI (c.p.m.) was 197 c.p.m.

And the RI (c.p.m.) (Fos)?
The RI (c.p.m.) was 197 c.p.m.

What about the RI (c.p.m.) (SV40 large T (SV40)) of the same substance?
The RI (c.p.m.) was 551 c.p.m.

p53 (from UniProt P02340 1-390) was tested. Which RI (c.p.m.) (p53) did it give?
The RI (c.p.m.) was 200 c.p.m.

What does the source list for “SV40 large T (from UniProt P03070 1-708) (other; other documents disagree on this pair)”?
RI (c.p.m.) (p53): 1400 c.p.m.; RI (c.p.m.) [1]: 208 c.p.m.
